Measured values from patent publication US20200308246A1 (published 2020).
Each block holds one binder with its values, some of them ahead of it. Where no end group is shown, it is not given here. [ ]: non-standard residue; d: D form. pS = N[C@@H](COP(=O)(O)O)C(=O)O

Tests used:
[1] = biological target: T1, MLL-pM-A7 peptide on HLA-B*07:02 (human); experiment: activation reporter or marker
T1 peptide: EPR[pS]PSASM

[2] = biological target: T2, MLL-pM-A8 peptide on HLA-B*07:02 (human); experiment: activation reporter or marker
T2 peptide: EPR[pS]PSHAM

[3] = biological target: T3, MLL-pM-A9 peptide on HLA-B*07:02 (human); experiment: activation reporter or marker
T3 peptide: EPR[pS]PSHSA

[4] = biological target: T4, MLL (KMT2A), MLL-pP peptide on HLA-B*07:02 (human); experiment: activation reporter or marker
T4 peptide: RVR[pS]PTRSP

[5] = biological target: T5, MLL-pM-A1 peptide on HLA-B*07:02 (human); experiment: activation reporter or marker
T5 peptide: APR[pS]PSHSM

[6] = biological target: T6, MLL-pM-A2 peptide on HLA-B*07:02 (human); experiment: activation reporter or marker
T6 peptide: EAR[pS]PSHSM

[7] = biological target: T7, MLL-pM-A3 peptide on HLA-B*07:02 (human); experiment: activation reporter or marker
T7 peptide: EPA[pS]PSHSM

[8] = biological target: T8, MLL-pM-A4 peptide on HLA-B*07:02 (human); experiment: activation reporter or marker
T8 peptide: EPRAPSHSM

[9] = biological target: T9, MLL-pM-A5 peptide on HLA-B*07:02 (human); experiment: activation reporter or marker
T9 peptide: EPR[pS]ASHSM

[10] = biological target: T10, MLL-pM-A6 peptide on HLA-B*07:02 (human); experiment: activation reporter or marker
T10 peptide: EPR[pS]PAHSM

[11] = biological target: T4, MLL (KMT2A), MLL-pP peptide on …; experiment: multimer staining

binding result [1]: no recognition
binding result [2]: recognises
binding result [3]: no recognition
binding result [4]: no recognition
binding result [5]: no recognition
binding result [6]: no recognition
binding result [7]: recognises
binding result [8]: no recognition
binding result [9]: no recognition
binding result [10]: no recognition
B1: TCR0077 (TCR, V domains shown)
Valpha: TQLLEQSPQFLSIQEGENLTVYCNSSSVFSSLQWYRQEPGEGPVLLVTVVTGGEVKKLKRLTFQFGDARKDSSLHITAAQPGDTGLYLCAGYGGGSNYKLTFGAGTRLTVKP
Vbeta: EAQVTQNPRYLITVTGKKLTVTCSQNMNHEYMSWYRQDPGLGLRQIYYSMNVEVTDKGDVPEGYKVSRKEKRNFPLILESPSPNQTSLYFCASRLTGRVHGYTFGPGTRLTVL

binding result [11]: recognises
binding result [1]: no recognition
binding result [2]: no recognition
binding result [3]: no recognition
binding result [5]: no recognition
binding result [6]: no recognition
binding result [7]: no recognition
binding result [8]: no recognition
binding result [9]: no recognition
binding result [10]: no recognition
B2: TCR0085 (TCR, V domains shown)
Valpha: KQEVTQIPAALSVPEGENLVLNCSFTDSAIYNLQWFRQDPGKGLTSLLLIQSSQREQTSGRLNASLDKSSGRSTLYIAASQPGDSATYLCAVMLWNQGGKLIFGQGTELSVKP
Vbeta: KAGVTQTPRYLIKTRGQQVTLSCSPISGHRSVSWYQQTPGQGLQFLFEYFSETQRNKGNFPGRFSGRQFSNSRSEMNVSTLELGDSALYLCASSLGRGYEQYFGPGTRLTVT
